Assay results taken from patent US20240076398A1 (VISTERRA, published 2024).
Positions count from the first letter of the chain named. No end group written: not given here.

T1: human C5aR1 (complement component 5a receptor 1) (human, UniProt P21730 1-350, sulfated tyrosines at positions 11 and 14)
T1 construct: on Expi293 cells, C5aR1-U937 cells or human neutrophils in flow cytometry; also called CD88; C5a anaphylatoxin chemotactic receptor 1
T1 chain: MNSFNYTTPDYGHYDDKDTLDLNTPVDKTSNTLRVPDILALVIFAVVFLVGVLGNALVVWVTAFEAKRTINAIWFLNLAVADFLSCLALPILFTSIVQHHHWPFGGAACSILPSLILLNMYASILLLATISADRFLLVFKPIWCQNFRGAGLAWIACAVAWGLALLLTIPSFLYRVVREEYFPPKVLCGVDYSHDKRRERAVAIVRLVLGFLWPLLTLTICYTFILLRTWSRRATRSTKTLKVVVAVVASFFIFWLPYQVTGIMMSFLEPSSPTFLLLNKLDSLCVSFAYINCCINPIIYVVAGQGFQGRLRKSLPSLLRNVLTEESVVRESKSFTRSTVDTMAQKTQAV

T2: biotinylated cyclic ECL2 peptide of C5aR1 (human, also: biotinylated, position not given here, cyclic, way of cyclisation not given here)
T2 peptide: RVVREEYFPPKVLC

B1: antibody 332 (antibody, V domains shown)
VH: QVQLQQSDAELVKPGASVKISCKASGYTFTDHSIHWVKQRPEQGLEWIGYISPGNGDIKYDEKFKGKATLTADTSSSTAYMQLNSLTSEDSAVYFCKGPLLLRWRYFYPVDYWGQGTTVTVSS
VL: DIVMTQSQKFMSSAVGDRVTITCKASQNVGAAVAWYQQKPGQSPKLLLYSASIRYTGVPDRFTGSGSGTDFTLTISNIQSEDLAHFFCQQYNSFPLTFGGGTKLEIK
B2: antibody 335 (antibody, V domains shown)
VH: B1 VH with E10A, S33A, D61N, T74K, L102V, F107Y, Y108I, P109T, V110M
VL: B1 VL with S13T, A14T, T20S, A34V, L48I, I53Y, I78M, L83V, H85D, F86Y

How the values were obtained:
[1] = biological target: T1, human C5aR1 (complement component 5a …); assay: flow cytometry on human neutrophils, titration 10^-7.5 to 10^-12 M
Protocol: Exemplary anti-C5aR1 antibodies generated as described in Example 1 were tested for binding to human neutrophils. Briefly, cryopreserved human neutrophils were obtained from Asarte Biologics.

[2] = biological target: T2, biotinylated cyclic ECL2 peptide of …; assay: BLI, peptide on streptavidin sensor
Description: The epitope mapping was undertaken, using biolayer interferometry, on a series of exemplary anti-C5aR1 antibodies generated as described in Example 1. Briefly, for each antibody, biotinylated peptides representing ECL2, the N-terminus with tyrosine sulfation, and the N-terminus without tyrosine sulfation, were immobilized in a streptavidin biosensor. Subsequently, the biosensor was exposed to […] of antibody to detect antibody binding to the immobilized peptide. The results of the epitope mapping study are shown in Table 4 (“+” indicates binding to the listed peptide; “−” indicates lack of binding to the listed peptide).

| Binder | binding result [1] | binding result [2] |
| --- | --- | --- |
| B1 | binds | no binding (tested: 10 gg/mL (so in the source)) |
| B2 | binds | no binding (tested: 10 gg/mL (so in the source)) |
